Measurements from patent US20240400618A1.
Further: test concentration or dose not given here.

What follows are substances tested against pxEBN4-ACE2-AAA-His (human) (UniProt Q9BYF1).
With “pxENBCP17-FLS-CT-His-SBP (from UniProt P0DTC2 15-1213) (ligand)” the Response, shift in Wavelength (nm) was 0.0382 nm.
“pxENBCP19-FLS-CT-His-StrepTagII (from UniProt P0DTC2 15-1213) (ligand)” showed a Response, shift in Wavelength (nm) of 0.042 nm.
In the case of “pxENBCP20-FLS-CT-His-TST (from UniProt P0DTC2 15-1213) (ligand)”, the Response, shift in Wavelength (nm) was 0.0719 nm.

Biological target: pxEBN4-ACE2-AAA-His (human) (UniProt Q9BYF1)
Remark: another data set of the same source
“pxEBNCP14-tPa-FLS-CT-His (from UniProt P0DTC2 16-1213) (ligand)” was tested, and the Response, shift in Wavelength (nm) was 0.529 nm.
In the case of “pxEBNCP15-mIgGHC-FLS-CT-His (from UniProt P0DTC2 16-1213) (ligand)”, the Response, shift in Wavelength (nm) was 0.492 nm.
“pxEBNCP16-IL2-FLS-CT-His (from UniProt P0DTC2 16-1213) (ligand)” gave a Response, shift in Wavelength (nm) of 0.145 nm.
In the case of “pxENB1-His-TEV-FLS-TN (from UniProt P0DTC2 14-1213) (ligand)”, the Response, shift in Wavelength (nm) was 0.0257 nm.
“pxENB2-His-TEV-FLS-CT (from UniProt P0DTC2 14-1213) (ligand)” was tested, and the Response, shift in Wavelength (nm) was 0.344 nm.
Work on “pxENB5-his-TEV-FLS (from UniProt P0DTC2 14-1213) (ligand)” yielded a Response, shift in Wavelength (nm) of 0.185 nm.
In the case of “pxENB8-FLS-TN-His (from UniProt P0DTC2 15-1213) (ligand)”, the Response, shift in Wavelength (nm) was 0.0591 nm.
“pxENB9-FLS-CT-His (from UniProt P0DTC2 15-1213) (ligand)” showed a Response, shift in Wavelength (nm) of 0.555 nm.
For “pxENB12-FLS-His (from UniProt P0DTC2 15-1213) (ligand)”, the Response, shift in Wavelength (nm) was 0.127 nm.
“pxENB14-His-TEV-RBD (from UniProt P0DTC2 319-541) (ligand)” was tested, and the Response, shift in Wavelength (nm) was 0.304 nm.
Substance “pxENB17-RBD-His (from UniProt P0DTC2 319-541) (ligand)” has a Response, shift in Wavelength (nm) of 0.301 nm.
Substance “pxENBEP17_TPA_Nuc(1-182)_Spike (15-1216, GAAS, PP)_10xHis (ligand)” has a Response, shift in Wavelength (nm) of 0.232 nm.
In the case of “pxENBEP18_Spike_Nuc(1-182)_10xHis (ligand)”, the Response, shift in Wavelength (nm) was 0.277 nm.
